From PMC3643599

Tests used:
His-TDP (101-261) = His-TDP (101-261) (human, UniProt Q13148 101-261); assay: lysine acetylation footprinting MS
GST-TDP (101-261) = GST-TDP (101-261) (human, UniProt Q13148 101-261); assay: CD titration
Sequence of GST-TDP (101-261) (Q13148 101-261): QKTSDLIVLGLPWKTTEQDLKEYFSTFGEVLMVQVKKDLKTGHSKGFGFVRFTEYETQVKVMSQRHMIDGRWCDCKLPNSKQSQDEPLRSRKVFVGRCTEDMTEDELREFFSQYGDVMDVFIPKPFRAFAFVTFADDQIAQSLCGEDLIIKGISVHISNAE

Sequence of His-TDP (101-261) (Q13148 101-261): as above

B1: (UG)6 (ssRNA)
RNA: UGUGUGUGUGUG
- binding result (His-TDP (101-261)): binds
- binding result (GST-TDP (101-261)): binds
